Molecular target: mature human myostatin (human, UniProt O14793 267-375)
Assay: cell-based or functional assay

| Binder | IC50 (nM), C2C12/pMARE luciferase reporter cell myostatin activity assay |
| --- | --- |
| anti-myostatin antibody 12A5-1 (antibody, V domains shown) VH: EVQLVESGGGLVQPGGSLRLSCAASGFTFSNYWMNWVRQAPGKGLEWVAQIRLKSDNYATHYAESVKGRFTISRDNAKNSLYLQMNSLRAEDTAVYYCARGLDYWGQGTTVTVSS VL: DIQMTQSPSSLSASVGDRVTITCKASQDINKYVAWYQQKPGKAPKLLIYYTSTLQPGVPSRFSGSGSGTDFTFTISSLQPEDIATYYCLQYDNLLYTFGQGTKLEIK | 473 nM |
| anti-myostatin antibody 12A5-9 (antibody, V domains shown) VH: EVQLVESGGGLVQPGGSLRLSCAASGFTFRNYWCNWVRQAPGKGLEWVAQIRLKSDNYATHYAESVKGRFTISRDNAKNSLYLQMNSLRAEDTAVYYCTEGLDYWGQGTTVTVSS VL: DIQMTQSPSSLSASVGDRVTITCKASQDINKYVAWYQQKPGKAPKLLIYYTRTLQPGVPSRFSGSGSGTDFTFTISSLQPEDIATYYCLQYDNLLYTFGQGTKLEIK | 3.98 nM |
| anti-myostatin antibody 12A5-3 (antibody, V domains shown) VH: EVQLVESGGGLVQPGGSLRLSCAASGFTFSNYWCNWVRQAPGKGLEWVAQIRLKSDNYATHYAESVKGRFTISRDNAKNSLYLQMNSLRAEDTAVYYCTEGLDYWGQGTTVTVSS VL: DIQMTQSPSSLSASVGDRVTITCKASQDINKYVAWYQQKPGKAPKLLIYYTSFLQPGVPSRFSGSGSGTDFTFTISSLQPEDIATYYCLQYDNLLYTFGQGTKLEIK | 2.53 nM |
| anti-myostatin antibody 12A5-18 (antibody, V domains shown) VH: EVQLVESGGGLVQPGGSLRLSCAASGFTFRNYWCNWVRQAPGKGLEWVAQIRLKSDNYATHYAESVKGRFTISRDNAKNSLYLQMNSLRAEDTAVYYCTEGLDYWGQGTTVTVSS VL: DIQMTQSPSSLSASVGDRVTITCKASQDINKYVAWYQQKPGKAPKLLIYYTSHLQPGVPSRFSGSGSGTDFTFTISSLQPEDIATYYCLQYDNLLYTFGQGTKLEIK | 1.45 nM |
| anti-myostatin antibody 12A5-12 (antibody, V domains shown) VH: EVQLVESGGGLVQPGGSLRLSCAASGFTFSNYWLNWVRQAPGKGLEWVAQIRLKSDNYATHYAESVKGRFTISRDNAKNSLYLQMNSLRAEDTAVYYCTEGLDYWGQGTTVTVSS VL: DIQMTQSPSSLSASVGDRVTITCKASQDINKYVAWYQQKPGKAPKLLIYYTSWLQPGVPSRFSGSGSGTDFTFTISSLQPEDIATYYCLQYDNLLYTFGQGTKLEIK | 1.45 nM |

Results, then the binder that gave them:

| IC50 (nM), C2C12/pMARE luciferase reporter cell myostatin activity assay | Binder |
| --- | --- |
| 4.96 nM | anti-myostatin antibody 12A5-8 (antibody, V domains shown) VH: EVQLVESGGGLVQPGGSLRLSCAASGFTFRNYWCNWVRQAPGKGLEWVAQIRLKSDNYATHYAESVKGRFTISRDNAKNSLYLQMNSLRAEDTAVYYCTEGLDYWGQGTTVTVSS VL: DIQMTQSPSSLSASVGDRVTITCKASQDINKYVAWYQQKPGKAPKLLIYYTKTLQPGVPSRFSGSGSGTDFTFTISSLQPEDIATYYCLQYDNLLYTFGQGTKLEIK |
| 3.08 nM | anti-myostatin antibody 12A5-10 (antibody, V domains shown) VH: EVQLVESGGGLVQPGGSLRLSCAASGFTFRNYWCNWVRQAPGKGLEWVAQIRLKSDNYATHYAESVKGRFTISRDNAKNSLYLQMNSLRAEDTAVYYCTEGLDYWGQGTTVTVSS VL: DIQMTQSPSSLSASVGDRVTITCKASQDINKYVAWYQQKPGKAPKLLIYYTSTLQPGVPSRFSGSGSGTDFTFTISSLQPEDIATYYCLQYDNKLYTFGQGTKLEIK |
| 1.64 nM | anti-myostatin antibody 12A5-6 (antibody, V domains shown) VH: EVQLVESGGGLVQPGGSLRLSCAASGFTFSRYWMNWVRQAPGKGLEWVAQIRLKSDNYATHYAESVKGRFTISRDNAKNSLYLQMNSLRAEDTAVYYCTEGLDYWGQGTTVTVSS VL: DIQMTQSPSSLSASVGDRVTITCKASQDINKYVAWYQQKPGKAPKLLIYYTSFLQPGVPSRFSGSGSGTDFTFTISSLQPEDIATYYCLQYDALLYTFGQGTKLEIK |
